Laboratory results reported in article PMC9482650, “Quantitative fragmentomics allow affinity mapping of interactomes” (Nature Communications, 2022).

Columns and labels:
Assay in all cases: holdup assay
Design in all cases: key: below the threshold = too weak to quantify, mostly under pKd 3.1 to 4
MAST2, Q6P0Q8 = target: MAST2, Q6P0Q8
APBA2_1, Q99767 = target: T1, APBA2_1, Q99767
T1 sequence (Q99767 563-664, limits assumed, looked up): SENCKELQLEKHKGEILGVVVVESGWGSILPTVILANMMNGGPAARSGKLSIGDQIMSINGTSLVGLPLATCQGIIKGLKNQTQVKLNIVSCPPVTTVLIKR

NHERF3_4, Q5T2W1 = target: T2, NHERF3_4, Q5T2W1
T2 sequence (Q5T2W1 373-468, limits assumed, looked up): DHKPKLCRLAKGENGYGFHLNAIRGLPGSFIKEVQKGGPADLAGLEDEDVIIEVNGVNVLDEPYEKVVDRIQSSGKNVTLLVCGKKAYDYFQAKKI

HTRA2, O43464 = target: HTRA2, O43464
GRIP2_5, Q9C0E4 = target: GRIP2_5, Q9C0E4
IL16_1, Q14005 = target: IL16_1, Q14005
GRIP2_4, Q9C0E4 = target: GRIP2_4, Q9C0E4
SIPA1L2, Q9P2F8 = target: T3, SIPA1L2, Q9P2F8
T3 sequence (Q9P2F8 945-1036, limits assumed, looked up): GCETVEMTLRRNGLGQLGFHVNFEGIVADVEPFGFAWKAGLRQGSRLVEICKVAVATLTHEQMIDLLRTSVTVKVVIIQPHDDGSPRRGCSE

MAGI1_2, Q96QZ7 = target: MAGI1_2, Q96QZ7
DFNB31_1, Q9P202 = target: T4, DFNB31_1, Q9P202
T4 sequence (Q9P202 135-233, limits assumed, looked up): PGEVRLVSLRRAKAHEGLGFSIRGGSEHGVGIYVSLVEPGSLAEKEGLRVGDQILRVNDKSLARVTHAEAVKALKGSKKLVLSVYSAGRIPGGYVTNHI

SHANK1, Q9Y566 = target: T5, SHANK1, Q9Y566
T5 sequence (Q9Y566 658-767, limits assumed, looked up): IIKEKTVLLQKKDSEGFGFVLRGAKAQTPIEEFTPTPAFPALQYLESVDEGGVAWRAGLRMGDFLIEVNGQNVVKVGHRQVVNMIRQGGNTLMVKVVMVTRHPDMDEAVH

PDLIM1, O00151 = target: PDLIM1, O00151
TJP1_3, Q07157 = target: TJP1_3, Q07157
PTPN13_1, Q12923 = target: T6, PTPN13_1, Q12923
T6 sequence (Q12923 1088-1188, limits assumed, looked up): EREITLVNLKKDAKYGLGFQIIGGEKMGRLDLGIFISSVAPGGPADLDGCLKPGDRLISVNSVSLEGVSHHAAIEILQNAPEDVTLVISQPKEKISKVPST

ARHGEF12, Q9NZN5-2 = target: ARHGEF12, Q9NZN5-2
PDZD7_3, Q9H5P4 = target: T7, PDZD7_3, Q9H5P4
T7 sequence (Q9H5P4 857-944, limits assumed, looked up): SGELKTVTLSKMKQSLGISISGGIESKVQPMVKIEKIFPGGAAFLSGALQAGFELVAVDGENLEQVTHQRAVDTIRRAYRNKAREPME

APBA2_2, Q99767 = target: T8, APBA2_2, Q99767
T8 sequence (Q99767 654-744, limits assumed, looked up): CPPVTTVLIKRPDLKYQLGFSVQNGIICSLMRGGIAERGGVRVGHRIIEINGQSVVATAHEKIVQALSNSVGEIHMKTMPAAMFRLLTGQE

DLG4_2, P78352 = target: DLG4_2, P78352
DVL3, Q92997 = target: T9, DVL3, Q92997
T9 sequence (Q92997 244-331, limits assumed, looked up): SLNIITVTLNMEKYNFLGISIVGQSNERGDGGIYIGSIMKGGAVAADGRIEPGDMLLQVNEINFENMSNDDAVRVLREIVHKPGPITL

DLG3_1, Q92796 = target: T10, DLG3_1, Q92796
T10 sequence (Q92796 125-227, limits assumed, looked up): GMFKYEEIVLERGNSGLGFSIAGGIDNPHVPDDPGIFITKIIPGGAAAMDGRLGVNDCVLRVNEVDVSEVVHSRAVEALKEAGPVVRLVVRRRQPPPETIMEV

SNTA1, Q13424 = target: T11, SNTA1, Q13424
T11 sequence (Q13424 82-180, limits assumed, looked up): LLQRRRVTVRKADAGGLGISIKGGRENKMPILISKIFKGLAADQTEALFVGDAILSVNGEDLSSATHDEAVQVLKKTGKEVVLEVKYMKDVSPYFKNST

DLG4_1, P78352 = target: DLG4_1, P78352
PTPN3, P26045 = target: PTPN3, P26045
Inadl_9, Q8NI35 = target: Inadl_9, Q8NI35
TJP1_2, Q07157 = target: TJP1_2, Q07157
MAGI2_4, Q86UL8 = target: MAGI2_4, Q86UL8
[1] = plain residues with an end cap or a label only (N-terminal biotin on a linker: ado-ado)
[2] = plain residues with an end cap or a label only (N-terminal biotin on a linker: ahx)
[3] = plain residues with an end cap or a label only (N-terminal biotin on a linker: ttds)

Chain of ARHGEF12, Q9NZN5-2 (Q9NZN5 other isoform, or with tags, fused parts or gaps): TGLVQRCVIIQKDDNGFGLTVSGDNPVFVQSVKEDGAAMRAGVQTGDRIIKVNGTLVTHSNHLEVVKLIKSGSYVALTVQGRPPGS
Chain of PTPN3, P26045 (P26045 505-587): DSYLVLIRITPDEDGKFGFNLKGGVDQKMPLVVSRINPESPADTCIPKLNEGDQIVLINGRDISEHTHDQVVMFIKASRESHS
Chain of DLG4_2, P78352 (P78352 155-259): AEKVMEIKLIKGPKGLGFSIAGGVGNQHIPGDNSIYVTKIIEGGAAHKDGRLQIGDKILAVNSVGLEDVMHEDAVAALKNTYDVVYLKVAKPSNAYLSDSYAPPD
Chain of MAGI1_2, Q96QZ7 (Q96QZ7 456-580): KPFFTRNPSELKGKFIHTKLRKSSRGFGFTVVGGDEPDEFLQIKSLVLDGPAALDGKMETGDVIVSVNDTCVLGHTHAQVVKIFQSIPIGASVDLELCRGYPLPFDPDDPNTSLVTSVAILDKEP
Chain of Inadl_9, Q8NI35 (Q8NI35 1530-1615): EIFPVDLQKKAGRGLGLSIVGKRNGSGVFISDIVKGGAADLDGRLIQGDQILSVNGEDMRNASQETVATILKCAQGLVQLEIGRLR
Chain of GRIP2_5, Q9C0E4 (Q9C0E4 544-642): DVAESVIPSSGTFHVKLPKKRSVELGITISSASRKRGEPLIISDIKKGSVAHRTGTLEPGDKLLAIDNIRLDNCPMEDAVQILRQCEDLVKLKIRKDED
Chain of TJP1_2, Q07157 (Q07157 181-274): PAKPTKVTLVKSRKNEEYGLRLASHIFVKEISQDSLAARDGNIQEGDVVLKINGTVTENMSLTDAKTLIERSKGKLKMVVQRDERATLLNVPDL
Chain of HTRA2, O43464 (O43464 355-458): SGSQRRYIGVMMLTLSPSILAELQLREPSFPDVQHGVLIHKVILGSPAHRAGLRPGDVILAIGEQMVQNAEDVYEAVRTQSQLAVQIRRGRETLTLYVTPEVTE
Chain of MAST2, Q6P0Q8 (Q6P0Q8 1099-1202): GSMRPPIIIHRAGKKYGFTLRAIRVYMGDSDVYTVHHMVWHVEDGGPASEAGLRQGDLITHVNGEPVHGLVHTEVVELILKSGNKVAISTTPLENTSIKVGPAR
Chain of GRIP2_4, Q9C0E4 (Q9C0E4 446-548): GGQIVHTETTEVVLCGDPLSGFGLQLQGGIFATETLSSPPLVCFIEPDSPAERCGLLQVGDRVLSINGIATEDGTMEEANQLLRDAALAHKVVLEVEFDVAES
Chain of IL16_1, Q14005 (Q14005 210-306): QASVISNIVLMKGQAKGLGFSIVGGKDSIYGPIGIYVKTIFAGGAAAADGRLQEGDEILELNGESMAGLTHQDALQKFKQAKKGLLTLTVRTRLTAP
Chain of TJP1_3, Q07157 (Q07157 416-512): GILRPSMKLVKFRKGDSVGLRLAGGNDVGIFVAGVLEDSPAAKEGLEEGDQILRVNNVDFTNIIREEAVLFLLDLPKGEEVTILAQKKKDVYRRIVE
Chain of DLG4_1, P78352 (P78352 62-152): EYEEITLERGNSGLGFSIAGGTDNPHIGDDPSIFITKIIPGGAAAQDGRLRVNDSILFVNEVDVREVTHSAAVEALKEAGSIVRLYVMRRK
Chain of MAGI2_4, Q86UL8 (Q86UL8 772-865): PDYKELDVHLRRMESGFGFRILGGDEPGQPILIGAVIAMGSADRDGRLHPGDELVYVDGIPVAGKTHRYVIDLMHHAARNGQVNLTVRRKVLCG
Chain of PDLIM1, O00151 (O00151 1-87): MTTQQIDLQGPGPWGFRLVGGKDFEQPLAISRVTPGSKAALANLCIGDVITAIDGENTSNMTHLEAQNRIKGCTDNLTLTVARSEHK

## IGHEDLETAV [DGKI, O75912]
MAST2, Q6P0Q8; [1]
  pKd: 5.47
APBA2_1, Q99767; [1]
  pKd: below the threshold
NHERF3_4, Q5T2W1; [1]
  pKd: below the threshold
HTRA2, O43464; [1]
  pKd: below the threshold
GRIP2_5, Q9C0E4; [1]
  pKd: below the threshold
IL16_1, Q14005; [1]
  pKd: 4.26
GRIP2_4, Q9C0E4; [1]
  pKd: below the threshold
SIPA1L2, Q9P2F8; [1]
  pKd: below the threshold
MAGI1_2, Q96QZ7; [1]
  pKd: below the threshold
DFNB31_1, Q9P202; [1]
  pKd: 4.79
SHANK1, Q9Y566; [1]
  pKd: 4.41
PDLIM1, O00151; [1]
  pKd: below the threshold
TJP1_3, Q07157; [1]
  pKd: below the threshold
PTPN13_1, Q12923; [1]
  pKd: below the threshold
ARHGEF12, Q9NZN5-2; [1]
  pKd: 3.49
PDZD7_3, Q9H5P4; [1]
  pKd: 4.59
APBA2_2, Q99767; [1]
  pKd: below the threshold
DLG4_2, P78352; [1]
  pKd: 4.97
DVL3, Q92997; [1]
  pKd: below the threshold
DLG3_1, Q92796; [1]
  pKd: 4.09
SNTA1, Q13424; [1]
  pKd: 5.18
DLG4_1, P78352; [1]
  pKd: 4.61
PTPN3, P26045; [1]
  pKd: 5.02
Inadl_9, Q8NI35; [1]
  pKd: 3.49
TJP1_2, Q07157; [1]
  pKd: below the threshold
MAGI2_4, Q86UL8; [1]
  pKd: below the threshold

## KDECVIATEV [DLL1, O00548]
MAST2, Q6P0Q8; [2]
  pKd: 5.17
APBA2_1, Q99767; [2]
  pKd: below the threshold
NHERF3_4, Q5T2W1; [2]
  pKd: below the threshold
HTRA2, O43464; [2]
  pKd: below the threshold
GRIP2_5, Q9C0E4; [2]
  pKd: below the threshold
IL16_1, Q14005; [2]
  pKd: 3.47
GRIP2_4, Q9C0E4; [2]
  pKd: below the threshold
SIPA1L2, Q9P2F8; [2]
  pKd: below the threshold
MAGI1_2, Q96QZ7; [2]
  pKd: below the threshold
DFNB31_1, Q9P202; [2]
  pKd: below the threshold
SHANK1, Q9Y566; [2]
  pKd: 3.76
PDLIM1, O00151; [2]
  pKd: below the threshold
TJP1_3, Q07157; [2]
  pKd: below the threshold
PTPN13_1, Q12923; [2]
  pKd: below the threshold
ARHGEF12, Q9NZN5-2; [2]
  pKd: 4.44
PDZD7_3, Q9H5P4; [2]
  pKd: 4.63
APBA2_2, Q99767; [2]
  pKd: below the threshold
DLG4_2, P78352; [2]
  pKd: 4.39
DVL3, Q92997; [2]
  pKd: below the threshold
DLG3_1, Q92796; [2]
  pKd: below the threshold
SNTA1, Q13424; [2]
  pKd: below the threshold
DLG4_1, P78352; [2]
  pKd: 3.93
PTPN3, P26045; [2]
  pKd: 4.2
Inadl_9, Q8NI35; [2]
  pKd: 3.87
TJP1_2, Q07157; [2]
  pKd: below the threshold
MAGI2_4, Q86UL8; [2]
  pKd: 3.64

## DLDEEEDTHL [PODXL, O00592]
MAST2, Q6P0Q8; [3]
  pKd: 5.31
APBA2_1, Q99767; [3]
  pKd: below the threshold
NHERF3_4, Q5T2W1; [3]
  pKd: below the threshold
HTRA2, O43464; [3]
  pKd: 3.52
GRIP2_5, Q9C0E4; [3]
  pKd: below the threshold
IL16_1, Q14005; [3]
  pKd: below the threshold
GRIP2_4, Q9C0E4; [3]
  pKd: below the threshold
SIPA1L2, Q9P2F8; [3]
  pKd: below the threshold
MAGI1_2, Q96QZ7; [3]
  pKd: below the threshold
DFNB31_1, Q9P202; [3]
  pKd: below the threshold
SHANK1, Q9Y566; [3]
  pKd: 4.95
PDLIM1, O00151; [3]
  pKd: 3.52
TJP1_3, Q07157; [3]
  pKd: below the threshold
PTPN13_1, Q12923; [3]
  pKd: below the threshold
ARHGEF12, Q9NZN5-2; [3]
  pKd: below the threshold
PDZD7_3, Q9H5P4; [3]
  pKd: 3.59
APBA2_2, Q99767; [3]
  pKd: below the threshold
DLG4_2, P78352; [3]
  pKd: below the threshold
DVL3, Q92997; [3]
  pKd: below the threshold
DLG3_1, Q92796; [3]
  pKd: below the threshold
SNTA1, Q13424; [3]
  pKd: 3.63
DLG4_1, P78352; [3]
  pKd: below the threshold
PTPN3, P26045; [3]
  pKd: 3.85
Inadl_9, Q8NI35; [3]
  pKd: below the threshold
TJP1_2, Q07157; [3]
  pKd: below the threshold
MAGI2_4, Q86UL8; [3]
  pKd: below the threshold
